{"source": "paper PMC3618615", "about": "(Nature structural & molecular biology, 2013)", "binders": {"B1": {"name": "MBP-SIX1 (human SIX1 residues 1-189 fused to MBP_B) (domain or fragment, UniProt Q15475 1-189, looked up)", "chain": "MSMLPSFGFTQEQVACVCEVLQQGGNLERLGRFLWSLPACDHLHKNESVLKAKAVVAFHRGNFRELYKILESHQFSPHNHPKLQQLWLKAHYVEAEKLRGRPLGAVGKYRVRRKFPLPRTIWDGEETSYCFKEKSRGVLREWYAHNPYPSPREKRELAEATGLTTTQVSNWFKNRRQRDRAAEAKEREN"}}, "molecular_target": "T1, EYA2 Eya domain (EYA2ED) (human, UniProt O00167-1 253-538)", "T1 sequence": "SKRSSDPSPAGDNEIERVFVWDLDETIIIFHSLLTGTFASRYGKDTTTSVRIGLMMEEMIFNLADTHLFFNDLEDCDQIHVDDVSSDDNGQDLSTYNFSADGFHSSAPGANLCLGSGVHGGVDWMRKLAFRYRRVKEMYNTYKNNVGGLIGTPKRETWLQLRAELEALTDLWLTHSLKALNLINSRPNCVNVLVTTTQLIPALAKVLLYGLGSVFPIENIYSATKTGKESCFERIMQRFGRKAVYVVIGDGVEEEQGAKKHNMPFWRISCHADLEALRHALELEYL", "experiment": "crystal structure"}
{"binder": "B1", "values": [{"measurement": "binding result", "result": "binds"}]}
